Tested on: Escherichia coli TOP10
Assay: shrunken log2 fold change of peptide-encoding DNA abundance (4.5 h post-induction vs induction); higher = less antimicrobial activity (less host growth inhibition)
Settings: time post-induction: 4.5 h; library: site-saturation at positions 5, 18, 19, 20
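Note: peptides expressed intracellularly from a pBAD plasmid library in pooled LB shake-flask culture, induced with 0.3% L-arabinose, DNA abundance read by NGS, three biological replicates, DESeq2 with apeglm shrinkage.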

## RRIRFRPPRLPRPRPRPRDFPRP
  shrunken log2 fold change: -0.141

## RRIRIRPPRLPRPRPRPQCDPRP
  shrunken log2 fold change: -0.205

## RRIRIRPPRLPRPRPRPNPLPRP
  shrunken log2 fold change: -0.0976

## RRIRWRPPRLPRPRPRPCNMPRP
  shrunken log2 fold change: -0.179

## RRIRPRPPRLPRPRPRPQECPRP
  shrunken log2 fold change: 0.0456

## RRIRIRPPRLPRPRPRPGTIPRP
  shrunken log2 fold change: -0.438

## RRIRTRPPRLPRPRPRPQCEPRP
  shrunken log2 fold change: -0.0143

## RRIRVRPPRLPRPRPRPCLRPRP
  shrunken log2 fold change: -0.146

## RRIRTRPPRLPRPRPRPFYIPRP
  shrunken log2 fold change: -0.57

## RRIRVRPPRLPRPRPRPPWLPRP
  shrunken log2 fold change: 0.365

## RRIRHRPPRLPRPRPRPMRFPRP
  shrunken log2 fold change: -0.00752

## RRIRRRPPRLPRPRPRPPKLPRP
  shrunken log2 fold change: 0.0716

## RRIRRRPPRLPRPRPRPNWRPRP
  shrunken log2 fold change: 0.415

## RRIRHRPPRLPRPRPRPCQMPRP
  shrunken log2 fold change: -0.0239

## RRIRDRPPRLPRPRPRPDYSPRP
  shrunken log2 fold change: 0.0125

## RRIRVRPPRLPRPRPRPEQQPRP
  shrunken log2 fold change: 0.0394

## RRIRVRPPRLPRPRPRPTEDPRP
  shrunken log2 fold change: -0.113

## RRIRFRPPRLPRPRPRPFTMPRP
  shrunken log2 fold change: -0.817

## RRIRARPPRLPRPRPRPDSRPRP
  shrunken log2 fold change: 0.12

## RRIRPRPPRLPRPRPRPVHGPRP
  shrunken log2 fold change: 0.0843

## RRIRVRPPRLPRPRPRPHWPPRP
  shrunken log2 fold change: -0.122

## RRIRSRPPRLPRPRPRPPHGPRP
  shrunken log2 fold change: 0.1

## RRIRDRPPRLPRPRPRPIGPPRP
  shrunken log2 fold change: 0.0272

## RRIRSRPPRLPRPRPRPRKMPRP
  shrunken log2 fold change: 0.207

## RRIRHRPPRLPRPRPRPRGWPRP
  shrunken log2 fold change: 0.629

## RRIRCRPPRLPRPRPRPGPRPRP
  shrunken log2 fold change: 0.713

## RRIRTRPPRLPRPRPRPETVPRP
  shrunken log2 fold change: 0.0349

## RRIRCRPPRLPRPRPRPHANPRP
  shrunken log2 fold change: -0.0108

## RRIRERPPRLPRPRPRPHFKPRP
  shrunken log2 fold change: -0.342

## RRIRTRPPRLPRPRPRPLKYPRP
  shrunken log2 fold change: -0.641

## RRIRKRPPRLPRPRPRPMYDPRP
  shrunken log2 fold change: -0.127

## RRIRTRPPRLPRPRPRPLCRPRP
  shrunken log2 fold change: -0.13

## RRIRMRPPRLPRPRPRPRIHPRP
  shrunken log2 fold change: 0.0221

## RRIRQRPPRLPRPRPRPCWDPRP
  shrunken log2 fold change: -0.155

## RRIRIRPPRLPRPRPRPPEWPRP
  shrunken log2 fold change: 0.0764

## RRIRYRPPRLPRPRPRPTEQPRP
  shrunken log2 fold change: -0.0161

## RRIRQRPPRLPRPRPRPSQVPRP
  shrunken log2 fold change: -0.23

## RRIRPRPPRLPRPRPRPDLKPRP
  shrunken log2 fold change: -0.0801

## RRIRFRPPRLPRPRPRPARTPRP
  shrunken log2 fold change: 0.332

## RRIRGRPPRLPRPRPRPGIHPRP
  shrunken log2 fold change: 0.251

## RRIRCRPPRLPRPRPRPFKCPRP
  shrunken log2 fold change: -0.232

## RRIRDRPPRLPRPRPRPMFDPRP
  shrunken log2 fold change: 0.894

## RRIRRRPPRLPRPRPRPDMSPRP
  shrunken log2 fold change: -0.433

## RRIRMRPPRLPRPRPRPKGRPRP
  shrunken log2 fold change: -0.00141

## RRIRLRPPRLPRPRPRPYARPRP
  shrunken log2 fold change: -0.44

## RRIRGRPPRLPRPRPRPHDQPRP
  shrunken log2 fold change: 0.62

## RRIRARPPRLPRPRPRPWMIPRP
  shrunken log2 fold change: -0.0822

## RRIRDRPPRLPRPRPRPCYKPRP
  shrunken log2 fold change: 0.0316

## RRIRLRPPRLPRPRPRPPGGPRP
  shrunken log2 fold change: 0.664

## RRIRLRPPRLPRPRPRPLECPRP
  shrunken log2 fold change: 0.184

## RRIRKRPPRLPRPRPRPVECPRP
  shrunken log2 fold change: 0.22

## RRIRCRPPRLPRPRPRPDEAPRP
  shrunken log2 fold change: 0.262

## RRIRFRPPRLPRPRPRPIYFPRP
  shrunken log2 fold change: -0.09

## RRIRARPPRLPRPRPRPNGDPRP
  shrunken log2 fold change: 0.147

## RRIRYRPPRLPRPRPRPWYKPRP
  shrunken log2 fold change: -0.0225

## RRIRERPPRLPRPRPRPPSAPRP
  shrunken log2 fold change: 0.632

## RRIRPRPPRLPRPRPRPAKNPRP
  shrunken log2 fold change: 0.235

## RRIRQRPPRLPRPRPRPQLDPRP
  shrunken log2 fold change: 0.188

## RRIRRRPPRLPRPRPRPMDNPRP
  shrunken log2 fold change: 0.158

## RRIRMRPPRLPRPRPRPIHQPRP
  shrunken log2 fold change: -0.108

## RRIRKRPPRLPRPRPRPWPPPRP
  shrunken log2 fold change: 0.56

## RRIRQRPPRLPRPRPRPWLYPRP
  shrunken log2 fold change: -0.0636

## RRIRARPPRLPRPRPRPWACPRP
  shrunken log2 fold change: 0.0376

## RRIRVRPPRLPRPRPRPHSYPRP
  shrunken log2 fold change: -0.262

## RRIRCRPPRLPRPRPRPEHRPRP
  shrunken log2 fold change: -0.0739

## RRIRDRPPRLPRPRPRPQDKPRP
  shrunken log2 fold change: -0.592

## RRIRYRPPRLPRPRPRPAPGPRP
  shrunken log2 fold change: 0.391

## RRIRYRPPRLPRPRPRPIEEPRP
  shrunken log2 fold change: 0.00911

## RRIRQRPPRLPRPRPRPCMLPRP
  shrunken log2 fold change: -0.239

## RRIRGRPPRLPRPRPRPFQGPRP
  shrunken log2 fold change: -0.0101

## RRIRDRPPRLPRPRPRPDGDPRP
  shrunken log2 fold change: -0.0107

## RRIRHRPPRLPRPRPRPAENPRP
  shrunken log2 fold change: -0.0113

## RRIRARPPRLPRPRPRPNLFPRP
  shrunken log2 fold change: -0.0329

## RRIRSRPPRLPRPRPRPAGFPRP
  shrunken log2 fold change: 0.262

## RRIRWRPPRLPRPRPRPYFTPRP
  shrunken log2 fold change: -0.624

## RRIRRRPPRLPRPRPRPLDFPRP
  shrunken log2 fold change: 0.184

## RRIRHRPPRLPRPRPRPTASPRP
  shrunken log2 fold change: -0.131

## RRIRQRPPRLPRPRPRPSHMPRP
  shrunken log2 fold change: 0.109

## RRIRMRPPRLPRPRPRPYFYPRP
  shrunken log2 fold change: -0.53

## RRIRKRPPRLPRPRPRPNPWPRP
  shrunken log2 fold change: 0.00515

## RRIRLRPPRLPRPRPRPCYQPRP
  shrunken log2 fold change: -0.476

## RRIRDRPPRLPRPRPRPDWEPRP
  shrunken log2 fold change: 0.0165

## RRIRKRPPRLPRPRPRPTDLPRP
  shrunken log2 fold change: 0.0464

## RRIRARPPRLPRPRPRPCQTPRP
  shrunken log2 fold change: -0.0627

## RRIRVRPPRLPRPRPRPAMWPRP
  shrunken log2 fold change: -0.0044

## RRIRGRPPRLPRPRPRPSHCPRP
  shrunken log2 fold change: 0.204

## RRIRLRPPRLPRPRPRPILKPRP
  shrunken log2 fold change: 0.0777

## RRIRKRPPRLPRPRPRPMHNPRP
  shrunken log2 fold change: -0.136

## RRIRRRPPRLPRPRPRPSARPRP
  shrunken log2 fold change: 0.349

## RRIRQRPPRLPRPRPRPMANPRP
  shrunken log2 fold change: -0.18

## RRIRVRPPRLPRPRPRPQPIPRP
  shrunken log2 fold change: -0.375

## RRIRDRPPRLPRPRPRPPYRPRP
  shrunken log2 fold change: 0.0425

## RRIRDRPPRLPRPRPRPWGEPRP
  shrunken log2 fold change: 0.0987

## RRIRRRPPRLPRPRPRPLFRPRP
  shrunken log2 fold change: 0.109

## RRIRERPPRLPRPRPRPRSQPRP
  shrunken log2 fold change: -0.341

## RRIRFRPPRLPRPRPRPLNMPRP
  shrunken log2 fold change: -0.777

## RRIRDRPPRLPRPRPRPIMQPRP
  shrunken log2 fold change: -0.0521

## RRIRSRPPRLPRPRPRPVYSPRP
  shrunken log2 fold change: -0.0582

## RRIRCRPPRLPRPRPRPWGEPRP
  shrunken log2 fold change: -0.0965

## RRIRFRPPRLPRPRPRPKDRPRP
  shrunken log2 fold change: 0.148

## RRIRCRPPRLPRPRPRPKQVPRP
  shrunken log2 fold change: 0.44

## RRIRMRPPRLPRPRPRPLYGPRP
  shrunken log2 fold change: -0.281

## RRIRQRPPRLPRPRPRPFWTPRP
  shrunken log2 fold change: -0.166

## RRIRDRPPRLPRPRPRPSLTPRP
  shrunken log2 fold change: 0.154

## RRIRNRPPRLPRPRPRPNKEPRP
  shrunken log2 fold change: -0.0761

## RRIRCRPPRLPRPRPRPTVCPRP
  shrunken log2 fold change: -0.0924

## RRIRHRPPRLPRPRPRPNYRPRP
  shrunken log2 fold change: -0.103

## RRIRPRPPRLPRPRPRPDYFPRP
  shrunken log2 fold change: -0.503

## RRIRTRPPRLPRPRPRPVASPRP
  shrunken log2 fold change: 0.0362

## RRIRWRPPRLPRPRPRPRMPPRP
  shrunken log2 fold change: 0.395

## RRIRFRPPRLPRPRPRPQECPRP
  shrunken log2 fold change: 0.0519

## RRIRHRPPRLPRPRPRPYLLPRP
  shrunken log2 fold change: -0.611

## RRIRERPPRLPRPRPRPFKRPRP
  shrunken log2 fold change: 0.0596

## RRIRPRPPRLPRPRPRPANQPRP
  shrunken log2 fold change: 0.0414

## RRIRWRPPRLPRPRPRPCEQPRP
  shrunken log2 fold change: 0.263

## RRIRERPPRLPRPRPRPWYMPRP
  shrunken log2 fold change: -0.386

## RRIRLRPPRLPRPRPRPELLPRP
  shrunken log2 fold change: 0.335

## RRIRLRPPRLPRPRPRPLYVPRP
  shrunken log2 fold change: -0.897

## RRIRARPPRLPRPRPRPKVAPRP
  shrunken log2 fold change: 0.698

## RRIRVRPPRLPRPRPRPWMHPRP
  shrunken log2 fold change: -0.406

## RRIRERPPRLPRPRPRPEIPPRP
  shrunken log2 fold change: 0.151

## RRIRYRPPRLPRPRPRPIMRPRP
  shrunken log2 fold change: 0.0675

## RRIRRRPPRLPRPRPRPPKGPRP
  shrunken log2 fold change: 0.706

## RRIRVRPPRLPRPRPRPTLIPRP
  shrunken log2 fold change: 0.0816

## RRIRWRPPRLPRPRPRPLQVPRP
  shrunken log2 fold change: -0.125
